Laboratory results from article PMC10624354.

Target: T1, PIF4 (Arabidopsis thaliana, UniProt Q8W2F3 1-430)
T1 sequence: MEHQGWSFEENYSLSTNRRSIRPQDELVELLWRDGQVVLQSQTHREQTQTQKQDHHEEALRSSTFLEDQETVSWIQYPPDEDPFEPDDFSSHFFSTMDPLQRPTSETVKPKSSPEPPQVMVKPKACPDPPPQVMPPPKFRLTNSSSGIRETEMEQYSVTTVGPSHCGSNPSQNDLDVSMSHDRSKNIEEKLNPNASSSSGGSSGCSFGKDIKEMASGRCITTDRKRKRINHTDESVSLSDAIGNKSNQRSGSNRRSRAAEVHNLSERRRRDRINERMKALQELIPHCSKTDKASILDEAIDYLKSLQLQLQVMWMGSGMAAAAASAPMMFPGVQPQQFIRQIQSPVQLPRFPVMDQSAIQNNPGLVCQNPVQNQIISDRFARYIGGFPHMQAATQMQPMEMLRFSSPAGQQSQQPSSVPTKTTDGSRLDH
Assay: EMSA

B1: YUC8pro (WT) (dsDNA)
DNA 1: TCTTTTTCTTCCCCACGTGGCTTCCTCTCGTTGGTCCCACAA
DNA 2: TTGTGGGACCAACGAGAGGAAGCCACGTGGGGAAGAAAAAGA
binding result: binds
